Experimental data taken from publication PMC8516343.

Experiments:
βTrCP1 [1] = biological target: βTrCP1 (UniProt Q9Y297); assay: co-immunoprecipitation; conditions: reference: ATF4 wild type; sites S219
βTrCP1 [2] = biological target: βTrCP1 (UniProt Q9Y297); assay: anti-Myc co-IP, anti-Flag blot; conditions: reference: Myc-ATF4-WT with Flag-CK1δ; sites S219

Substance	binding against the reference (βTrCP1 [1])	binding against the reference (βTrCP1 [2])
ATF4 (from UniProt P18848) ATF4-S219A	lost	
ATF4 (from UniProt P18848) Myc-ATF4-S219A with Flag-CK1δ		weaker
